According to article PMC4540320, “A Newly-Identified Polymorphism in Rhesus Macaque Complement Factor H Modulates Binding Affinity for Meningococcal FHbp” (PLoS ONE, 2015):

What was measured:
[1] = target: rhesus macaque serum Factor H, sequence type HP/HP (H352 with P360, homozygous) (rhesus macaque (endogenous in serum)); test: SPR; Biacore X100 Plus, CM5 chip with immobilised goat anti-human FH; FH (~600 RU) captured from a 1:50 serum dilution; FHbp 3.16 to 316 nM in solution, single-cycle kinetics, 1:1 binding model
[2] = target: rhesus macaque serum Factor H, sequence type HP/YP (heterozygous) (rhesus macaque (endogenous in serum)); test: as above
[3] = target: rhesus macaque serum Factor H, sequence type YS/YP (heterozygous) (rhesus macaque (endogenous in serum)); test: as above
[4] = target: rhesus macaque serum Factor H, sequence type HP/YS (heterozygous) (rhesus macaque (endogenous in serum)); test: as above
[5] = target: T1, human complement Factor H (human (endogenous in serum), UniProt P08603 19-1231); test: SPR; as the serum capture assay, but with human FH purified from the same subject captured on immobilised goat anti-human FH; FHbp in solution, single-cycle kinetics, 1:1 binding model; conditions: both partners purified
T1 construct: also called human FH; human serum FH; source: endogenous, human serum; also purified from the same subject
T1 sequence (P08603 19-1231): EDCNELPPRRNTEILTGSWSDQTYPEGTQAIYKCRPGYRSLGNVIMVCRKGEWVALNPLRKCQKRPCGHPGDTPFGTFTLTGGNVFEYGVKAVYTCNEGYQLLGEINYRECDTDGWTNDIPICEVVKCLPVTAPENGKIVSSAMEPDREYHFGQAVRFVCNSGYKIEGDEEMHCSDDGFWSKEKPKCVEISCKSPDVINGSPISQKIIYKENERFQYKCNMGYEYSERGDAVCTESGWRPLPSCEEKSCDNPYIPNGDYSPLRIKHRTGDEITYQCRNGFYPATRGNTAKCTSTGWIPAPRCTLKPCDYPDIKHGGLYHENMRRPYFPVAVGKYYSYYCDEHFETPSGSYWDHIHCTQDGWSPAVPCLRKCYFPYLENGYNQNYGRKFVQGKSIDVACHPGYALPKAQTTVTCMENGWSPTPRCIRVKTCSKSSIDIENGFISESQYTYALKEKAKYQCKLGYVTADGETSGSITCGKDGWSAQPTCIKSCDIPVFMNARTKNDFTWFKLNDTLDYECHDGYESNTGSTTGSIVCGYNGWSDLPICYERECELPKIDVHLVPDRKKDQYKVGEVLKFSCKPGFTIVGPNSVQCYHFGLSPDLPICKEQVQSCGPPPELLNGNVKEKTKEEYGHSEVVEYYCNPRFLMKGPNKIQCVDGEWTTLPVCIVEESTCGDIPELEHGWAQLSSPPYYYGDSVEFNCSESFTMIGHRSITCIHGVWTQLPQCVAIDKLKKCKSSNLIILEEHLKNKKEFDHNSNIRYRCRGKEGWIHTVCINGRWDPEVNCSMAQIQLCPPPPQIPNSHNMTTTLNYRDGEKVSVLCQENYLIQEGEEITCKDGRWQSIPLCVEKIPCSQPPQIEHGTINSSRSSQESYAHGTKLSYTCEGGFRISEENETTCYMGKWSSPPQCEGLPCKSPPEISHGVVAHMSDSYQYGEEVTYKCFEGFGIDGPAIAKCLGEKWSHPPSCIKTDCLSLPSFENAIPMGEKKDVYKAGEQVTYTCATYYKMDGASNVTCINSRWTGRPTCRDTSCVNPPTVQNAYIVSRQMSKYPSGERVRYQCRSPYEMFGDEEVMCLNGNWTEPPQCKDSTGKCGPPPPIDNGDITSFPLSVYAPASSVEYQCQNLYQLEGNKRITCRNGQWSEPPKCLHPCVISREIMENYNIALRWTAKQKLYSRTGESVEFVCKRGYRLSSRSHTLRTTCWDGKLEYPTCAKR

[6] = target: T1, human complement Factor H; test: SPR; Biacore X100 Plus, CM5 chip with immobilised goat anti-human FH; FH (~600 RU) captured from a 1:50 serum dilution; FHbp 3.16 to 316 nM in solution, single-cycle kinetics, 1:1 binding model; conditions: one partner purified

| Molecule | Kd [1] | kon [1] | Kd [2] | kon [2] | Kd [3] | kon [3] | Kd [4] | kon [4] | Kd [5] | kon [5] | Kd [6] | kon [6] |
| --- | --- | --- | --- | --- | --- | --- | --- | --- | --- | --- | --- | --- |
| recombinant Factor H binding protein (FHbp) ID 1 (from UniProt Q9JXV4 20-274) (natural protein) | 100 nM | 180000 M⁻¹ s⁻¹ | 18.2 nM | 180000 M⁻¹ s⁻¹ | 10.4 nM | 180000 M⁻¹ s⁻¹ | 99.5 nM | 190000 M⁻¹ s⁻¹ | – | – | – | – |
| recombinant Factor H binding protein (FHbp) ID 1 (natural protein, also called meningococcal FHbp; source: recombinant, purified as described previously [14] with a second ion exchange chromatography step (HiTrap SP HP)) CSSGGGGVAADIGAGLADALTAPLDHKDKGLQSLTLDQSVRKNEKLKLAAQGAEKTYGNGDSLNTGKLKNDKVSRFDFIRQIEVDGQLITLESGEFQVYKQSHSALTAFQTEQIQDSEHSGKMVAKRQFRIGDIAGEHTSFDKLPEGGRATYRGTAFGSDDAGGKLTYTIDFAAKQGNGKIEHLKSPELNVDLAAADIKPDGKRHAVISGSVLYNQAEKGSYSLGIFGGKAQEVAGSAEVKTVNGIRHIGLAAKQ | – | – | – | – | – | – | – | – | 18.2 nM | 220000 M⁻¹ s⁻¹ | 19.8 nM | 190000 M⁻¹ s⁻¹ |
